The target in the assay is human PD-1 expressed on cells (CHO human PD-1 cells) (human) (UniProt Q15116). As to the kind of experiment: cell-based or functional assay.
human PD-1 expressed on cells (CHO human PD-1 cells) (human), sequence (Q15116 21-288): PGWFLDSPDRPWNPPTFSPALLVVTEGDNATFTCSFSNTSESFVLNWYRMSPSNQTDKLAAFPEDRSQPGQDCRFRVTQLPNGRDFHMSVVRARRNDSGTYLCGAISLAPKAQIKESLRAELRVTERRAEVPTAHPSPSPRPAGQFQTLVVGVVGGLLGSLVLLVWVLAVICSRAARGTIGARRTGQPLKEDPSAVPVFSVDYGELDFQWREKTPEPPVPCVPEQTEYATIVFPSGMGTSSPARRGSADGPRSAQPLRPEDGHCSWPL

B1: 1.57-4GS-MSA binder (bispecific antibody, part only; not given: mouse serum albumin binding VH, part only)
chain, part: QVQLVESGGGLVKPGGSLRLSCAASGFTFSDNSMTWMRQAPGKGLEWVSYISSGGGVIFYADSVKGRFTISRDNAKNSLYLQMNSLRADDTAVYYCAREAPLRLGESPHDAFDISGQGTMVTVSSGGGGSGGGGSGGGGSGGGGS
Molecule B1 yielded an EC50 (M); human PD-1 reporter gene assay of 1e-08 M and an EC50 (M); reporter assay of 1e-08 M.

These data come from patent US20230357405A1.
